In patent US20240209099A1 (SUZHOU TRANSCENTA THERAPEUTICS, published 2024):

What was measured:
[1] = target: T1, human VEGFR2 on HUVEC cells (human, UniProt P35968 20-1356); assay: flow cytometry on HUVEC cells, MFI, anti-human IgG (H+L)-PE
T1 construct: also called hVEGFR2 on HUVEC
Experimental: Same methods with Example 11. Briefly, Log phase HUVEC cells were collected and added to each tube. Then 100 μl/tube serial diluted humanized antibodies in FACS buffer were added and kept at 4° C. for 1 hr. Binding of antibodies to HUVEC was detected by PE signal of the 2nd antibody (anti-hIgG (H+L)-PE), which was added after the 1st antibodies. (see FIG. 15).

[2] = target: T2, Recombinant Human VEGFR2/KDR Protein, His tag (hVEGFR2-his) (human, UniProt P35968 20-764); assay: ELISA, hVEGFR2-his coated, anti-human Fc-HRP; antibody made in 293T cells
T2 construct: Expressed in HEK293, bought from ACRO Biosystems; also called human VEGFR2-his; Human VEGFR2/KDR-His
Experimental: Same protocol of Example 4 except using HRP conjugated goat anti-human Fc antibody as secondary antibody. Binding to hVEGFR2-his and rhesus VEGFR2-his (Acrobiosystems, Cat #VE2-C52H3) were also analyzed head-to-head.
Same protocol of Example 9.

[3] = target: T2, Recombinant Human VEGFR2/KDR Protein, …; assay: ELISA, human VEGFR2-his coated, anti-human Fc-HRP; antibody made in CHO cells
[4] = target: T2, Recombinant Human VEGFR2/KDR Protein, …; assay: competition ELISA: VEGF-A coated (0.25 ug/ml), antibody titrated together with 1 ug/ml human VEGFR2, detection with mouse anti-VEGFR2 serum and anti-mouse Fc-HRP; blocked ligand VEGF-A
Experimental: (§1) For this assay, 0.25 μg/ml VEGF-A was coated on ELISA plate before a mixture of chimeric antibodies and VEGFR2 were added. To detect free VEGF-A (not bind to VEGFR2), 1:1000 diluted mouse serum (mouse previous immunized with human VEGFR2) were added and HRP conjugated goat anti-mouse Fc antibody was used as secondary antibody.
(§2) Same protocol of Example 10. Briefly, 0.25 μg/ml VEGF-A was coated overnight at 4° C. After blocking, serial diluted 54-H2L1, 48-H3L1, Ramucirumab and 1 μg/ml human VEGFR2 or rhesus VEGFR2 were added at the same time for 2 hour-incubation. After wash, mouse serum containing polyclone VEGFR2 antibody and HRP conjugated goat anti-mouse Fc antibody were added for detection of free VEGF-A coated on the plates (see FIGS. 13A and 13B).

[5] = target: T3, Recombinant Rhesus macaque VEGFR2/KDR Protein, His tag (rhesus macaque); assay: competition ELISA: VEGF-A coated (0.25 ug/ml), antibody titrated together with 1 ug/ml rhesus VEGFR2, detection with mouse anti-VEGFR2 serum and anti-mouse Fc-HRP; blocked ligand VEGF-A
T3 construct: Expressed in HEK293, bought from ACRO Biosystems; also called rhesus VEGFR2-his; rhesus VEGFR2
T3 chain: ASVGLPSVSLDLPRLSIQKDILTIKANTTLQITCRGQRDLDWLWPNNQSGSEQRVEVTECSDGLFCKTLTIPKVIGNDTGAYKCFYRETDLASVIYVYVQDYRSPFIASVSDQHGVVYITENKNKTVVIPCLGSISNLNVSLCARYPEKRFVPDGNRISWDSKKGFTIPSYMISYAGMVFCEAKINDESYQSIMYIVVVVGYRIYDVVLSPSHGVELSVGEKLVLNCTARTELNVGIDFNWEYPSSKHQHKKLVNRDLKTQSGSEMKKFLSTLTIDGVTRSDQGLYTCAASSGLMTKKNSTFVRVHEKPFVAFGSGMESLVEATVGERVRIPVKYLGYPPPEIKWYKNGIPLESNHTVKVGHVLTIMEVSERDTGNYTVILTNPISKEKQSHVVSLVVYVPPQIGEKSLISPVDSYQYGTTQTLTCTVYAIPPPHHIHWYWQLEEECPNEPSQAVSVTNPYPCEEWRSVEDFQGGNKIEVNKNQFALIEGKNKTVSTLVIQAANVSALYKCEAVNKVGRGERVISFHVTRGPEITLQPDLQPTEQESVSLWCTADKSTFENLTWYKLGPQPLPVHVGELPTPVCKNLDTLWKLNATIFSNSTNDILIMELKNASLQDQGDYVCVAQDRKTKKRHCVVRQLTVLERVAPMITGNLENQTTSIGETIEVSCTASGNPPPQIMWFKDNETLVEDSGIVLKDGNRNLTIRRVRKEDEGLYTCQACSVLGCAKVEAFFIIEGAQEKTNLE
Experimental: as §1, §2

EC50 (read off the curve) [1]: ~0.3 µg/mL | EC50 [2]: 0.0288 µg/mL | EC50 [3]: 0.00755 µg/mL | IC50 [4]: 0.654 µg/mL | IC50 [5]: 0.805 µg/mL
B1: 54-H2L1 (humanized Mab54) (antibody, human IgG1, V domains shown)
VH: EVQLVESGGGLVKPGGSLRLSCAASGFTFSMYGMSWVRQAPGKRLEWVASISIGGSYTYYADSVKGRFTISRDNAKNTLYLQMNSLRAEDTAVYYCARELDGNYDYWGQGTTLTVSS
VL: DIVITQDELSLPVTFGESVSISCRSSKSLLYKDGKTYLNWFLQRPGQSPQLLIYLMSTRASGVSDRFSGSGSGTDFTLKISRVEAEDVGIYYCQQLVEYPFTFGSGTKLEIK
notes: also called 54-H2L1 (CHO); humanized 54 variant H2L1
